According to the DeepSol protein solubility set:

Test: soluble on expression in E. coli; label from the status in PepcDB or PDB records

Sequence	soluble on expression in E. coli
MSLNVDPNITKYMIKAKIVTDGVVEKPDVVGAIFGQTEGLLGDELDLRDLQKSGKIGRIEVEIDTKKGRTEGYVLIPSGLDQVESSILAAALETIDRIGPCKAKVEIESIEDVRINKRDRVIKRAEELYRKMGENGKSLSESIVQTVREEVEKKEIISYGEEHLPAGPAIADSDSIIVVEGRNDVLNLLRYGIKNTIAVQGTSVPKTVKELSKSRTVTLFVDGDHGGDLIIKEMLQVADVDFIARAPPGTEVEELTYKQIIKALKYKTPVEQYLETHGMIEELKEWSSRNTKELEERQGNELKNERPEKINENEESEKNVELKEGSVQKLETVPEFDPSSPESIKFKLKQLYESRELELFDGQSSVGKFPVSDAIEKIESMHGDLLITGGIISQRLLDIAYNIGVKAIYGFKIGNITKKPDDIKVVAWDHIEGHHHHHH	soluble
MPKAKAKTKNTEIISPHHYVYPNTTTLKNKYGIKNLNAFLEKCSHDTAKAMINLREESLPEYFDTAYLCHIHQQLFKNTFEWAGYLRHIPFTFADGTTAAMPEMKRTGWKNAFAIGDEIQEGLQRLDQTLAEKNNLQGLTREEFNSEAIELFNSLNQLHPFREGNGRTQRLFFENLAKAAGHQLNFSLITKERMMVASVAVAENGDLEPMQHLFEDISNPEKIRLLKEFMHTMKNTGRNVNDRPVMVAKEGETYTGTYRGAGLEGFALNVKGAYIIGNIDHLPPEQLKILKPGDKITFTAPK	soluble
IKEGQLAEKTIRANKNIENTYETEQRKKLAAEAVTPEYIYQEDTASVQHNRIDKLFKLIDSANEKVDKEYSNKQAKAKKEETIPAPTVEERVASLKSLFESLPQDEVTFYQSFPNVFYQTIFTLTSEQLDKVRSESLMLVDDAMQNHVRESDLDKIRQEANGKIQYLDITSTMQQVIRYIVNQGIVVNDIANEKRTEELRQKAMNAVQPAMIYQGEIIVREGTQIDAKAVEKLELLGMTSQNTS	not soluble
MGKALPFYLSPYPVDFWTNASFSDEEHEDAALSNSHLGRNAMVPPQGRSGPASWILRSVRDPGFAPCPPWSWIYHQFRIAWLRCVVRMDGRAPQVQTGQSTSPAKAASNATALQDQA	not soluble
MGSDKIHHHHHHMSNSSRLSVASNSQDATSPLRLLVLSNGHGEDVIAVRILQELQRQSNPPEIFALPLVGEGRAYQQLEIPLIGSVRTMPSGGFIYMDGRQLARDVRGGLLQLTLSQIKAVRRWVSSQKKLGNKRAILAVGDIVPLLFATFSGANYAFVGTAKSEYYVRDEAGLLPRKSKDARWENFSGSVYHPWERWLMSRRRCKAVFPRDVLTTETLKQWPIPAFNLGNPMMDGLQPTFSRQQFYSRDSHQQETVRPLMVTLLPGSRPPEAYTNWEKIMIAVSALMASFQERDSVFYTSGTVVFLGAIAPGLDSNILSQSVQSQGWRAESVCPIQLPDPNILTFKQRNAYLLLTQQSYNDCLHLGDFAIAMAGTATEQFIGLGKPAIAIPGNGPQYNPAFAEAQSRHLGSSLILVEQPAEVAEIVQSLFKDPDILQIIAENGLRRMGKPGAALRIAECLQERLS	not soluble
MHKINKWSVIYNINSTVTRALRDLMQGILQKI	soluble
KILSVGSFGCNFVCDFCQNYDISQRKARSTFAPKEELIRIAMTTEDNIGLAFTYNEPSIWYEYMYDCAKLLKETDEKRSVVFVTNGFLSEEPLKKLLPYVDAMNIDLKSFKESYYKSLCGGRLNPVLETIKMAAKVCHVEVTTLLVSGENDNLDEIEEIAKFLASVNSEIPLHLSRYFPRYKLENPPTDVEFMQEAKKTAEKYLKRVMLGNV	not soluble
MDQQEPSNNVDTSSILSDDGMETQEQSSFVTATIDLTVDDYDETEIQEILDNGKAEEGTDEDSDLVEGILNANSDVQALLDAPSEQVAQALNSFFGNESEQEAVAAQRRVDAEKTAKDEAELKQQEEAEDLIIEDSIVKTDEEKQAVRRLKINEFLSWFTRLLPEQFKNFEFTNPNYLTESISDSPVVNVDKCKEIVKSFKESESLEGLSQKYELIDEDVLVAAICIGVLDTNNEEDVDFNVLCDDRIDDWSIEKCVTFLDYPNTGLNSKNGPLRFMQFTVTSPASAILMLTLIRLREEGHPCRLDFDSNPTDDLLLNFDQVEFSNNIIDTAVKYWDDQKENGAQDKIGRRVLIKLTTVLKNAVGSRNEIIQLVNEKIPDFDGTEAAVNESFTSDQRTEIINSRAIMETLKAEMKLAIAEAQKVYDTKTDFEKFFVLTVGDFCLARANPSDDAELTYAIVQDRVDAMTYKVKFIDTSQIRECNIRDLAMTTQGMYDPSLNTFGDVGLRVACRQVISSSQFGKKTIWLTGTAAGRRRAHRSDFLIFFDNGTDAYVSAPTMPGEPGYEVASEKKSVFSLKEMIAKMNAAQIAIMVGQPVGKEGNLDYFLTFHWIRQSHRSAYIRDFMKEFPEWPLLKMPVGMRICLYNSLVDRRKKMVTVIGTDRAFAIVRHEAPNPLAPGNRCTDFPCNDRNHQHIDEKIYRGSHRLEGAAHKKHMISTNNNLSQRRKDQLQSQFEPTDMIRSMPERNHQQVVKKKTTGTNQNVASTNDAKSKREIEIRKKNQFLFNKIIVPIPVLTPLENLKAHAQCGPDCLQKMDADPYEARFHRNSPIHTPLLCGWRRIMYTMSTGKKRGAVKKNIIYFSPCGAALHQISDVSEYIHVTRSLLTIDCFSFDARIDTATYITVDDKYLKVADFSLGTEGIPIPLVNSVDNDEPPSLEYSKRRFQYNDQVDISSVSRDFCSGCSCDGDCSDASKCECQQLSIEAMKRLPHNLQFDGHDELYESSEKQNKFLKLFFFRVPHYQNRLLSSKVISGLYECNDQCSCHRKSCYNRVVQNNIKYPMHVSLFNDDTYQLLFFLQIFKTAQSGWGVRALTDIPQSTFICTYVGAILTDDLADELRNADQYFADLDLKDTVELEKGREDHETDFGYGGDESDYDDEEGSDGDSGDDVMNKMVKRQDSSESGEETKRLTRQKRKQSKKSGKGGSVEKDDTTPRDSMEKDNIESKDEPVFNWDKYFEPFPLYVIDAKQRGNLGRFLNHSCDPNVHVQHVMYDTHDLRLPWVAFFTRKYVKAGDELTWDYQYTQDQTATTQLTCHCGAENCTGRLLKS	not soluble
MGSDKIHHHHHHMPDFSYAKITKLVVHFAGNKAREEGTEVSANVLQDIGSEMNQTLASIFLEPFTKDDYYQFSHETDLDFNEVRTFAANMFGAEEEFLDESKKILEHLYSETTHPNIKSGDVWIFFIEGCVVDGDFTNGIGIFKVENKEVFLKNDFNGSEFQIGYDKGITGTDLDKGCLIFNVDHDSGNKVLILDRLNRGDSVYWKDKFLSIDKITDEKFYTEGFVEVCTDYIKQREESLLDKSNFVKATSEYLAGEETLNIAEFARTTIEKPEEITEFNTMVDTFERENNVRFPETFQLDEEKREKLSKKIRKTIKLGKNISVVVKDLEQLEETDFVQGYDEEKGKNYMIVYYD	not soluble
MQLSKFFQKPQLLFRVAQPKDKENILKFLDAHFAKEEPCARALKLSPETSRGIFTTTVTRCLNFPFSTVVLQENDEIAACLLASVWNRTDPIDSADFNSSGMPENLKLFVQFINSAHSNFWKIAPPNVNSIIHREIGSVAPQFTRKGIATRMVTTNMTKTNLKKYNIGGVLSETSSLANQIVLQKAGFKCLKELPYSAIVDSKGNRVLRPDDGTTSLCLNFKPIEEYENLPE	not soluble
MGSDKIHHHHHHMIRVLSVFGTRPEAIKMAPLVKKLEEEQNVESLVCVTAQHRQMLDQVLEVFDIKPDFDLNIMKERQNLSDITVNALSGLYDLIGELKPDIVLVQGDTTTTFAGALAAFYHRIPVGHVEAGLRTNDRYSPFPEEINRRLTGVLSTLHFAPTKRNRENLLKENVMGKIYVTGNTVIDALRYTVKENHVFEDPILRNMDFSDGRYILLTSHRRENIGKPLENICRAVRRIVEGFEDVKVIYPVHMNPAVREIVFPMLENVERVFLIDPVNVIDMHNLMARSYLIMTDSGGIQEEAPALGKPVIVLRKETERPEAIEAGVAVLGGVEEERIFELAKKLLVDREEYEKMAKAVNPFGDGRASERIVKAILHEFGLSDPPEEFC	not soluble
MEIIRPMRVAIVAESFLPNVNGVTNSVLRVLEHLKANGHDALVIAPGARDFEEEIGHYLGFEIVRVPTVRVPLIDSLPIGVPLPSVTSVLREYNPDIIHLASPFVLGGAAAFAARQLRIPAIAIYQTDVAGFSQRYHLAPLATASWEWIKTVHNMCQRTLAPSSMSIDELRDHGINDIFHWARGVDSKRFHPGKRSVALRKSWDPSGAKKIVGFVGRLASEKGVECLAGLSGRSDIQLVIVGDGPEAKYLQEMMPDAIFTGALGGEELATTYASLDLFVHPGEFETFCQAIQEAQASGVPTIGPRAGGPIDLINEGVNGLLLDVVDFKETLPAAAEWILDDSRHSEMCAAAWEGVKDKTWEALCTQLLQHYADVIALSQRIPLTFFGPSAEVAKLPLWVARALGVRTRISIEALEHHHHHH	soluble
MAHHHHHHMDVSQFLKSFKKNVAAKSKRSSSVRQSDEAANSGAEEDVTEIFHSASDSEADGEAEDGEVILGGRADKMAGKRYTRNMDHSKRNREFAALKVVETNSVPAVEAGRFQRQRAALARQATDARKPPRTEMIASVRAELLRQREKLRGSNALDSANQLDASVQKMETTMIEVEDLLQASAPTAATSASVLDFLPAAPLPAPRQATLTTASRAASIAVALSEPQPPSSSVTNGRAGTPTVNDPALEEPPKLPKKRTKFELAMAMAHDEVAS	not soluble
MKIIIIGGVAGGATTAARIRRTNEAAEIILLEKGKYISYANCGLPYYIGGVIKEREKLFVQTPEAFSTRFRVDVRTENEVIFIDRKRKTVTVRQSSGDTYEESYDKLLISTGASPVRPPLPGIDLNGIFTLRNVADTDRIKEYINSHAPRKAVVIGAGFIGLEMAENLHAQGAKVSIVEMGNQVMAPIDFSMASLVHQHLMDKGVNLYLEQAVASFERDGKGLKVIFKNGQSISADIVILSIGVRPETTLARAAELKIGEAGGIAVNDYLQTSDESIYAIGDAIEFRHPITGKPWLNYLAGPANRQGRIVADNIQGAHIPYEGAIGTSIAKVFDMTVASTGLPGKRLRQAEINYMSSTIHPSSHAGYYPDAMPMSIKITFDPKTGKLYGGQIVGYDGVDKRIDEIALVIKHEGTIYDLMKVEQAYAPPFSSAKDPVAVAGYVAENIITGKVQPVYWRQLRDIEMENNFLLDVRTPDEFSLNTLPGAVNIPLDELRDRLDELPKDKMIYTFCAVGLRGYLAYRILVQHGFEKVRNLSGGLKTYHAAAAPIILREESENEVPAQPNANIQQPADAQPQKTVSPVEAVKTIRVDACGLQCPGPILKMKKTMDSLVSGDRVEITSTDPGFPRDAAAWCNSTGNQLISKETAGGKSVVVIEKGEPKSCNIVTSCEGKGKTFIMFSDDLDKALATFVLANGAAATGQKVTIFFTFWGLNVIKKLHKPNVEKDIFGKMFGMMLPSSSRKLKLSKMSMGGIGGKMMRYIMNRKGIDSLESLRQQALENGVEFIACQMSMDVMGVKQEELLDEVTIGGVATYMERADNANINLFILEHHHHHH	not soluble
MRFPPLLFFQDSEAVKRIANSVRGTKDDDAEIKDHSMRFIRNAISGDQQKEILNVDMLRYIAWVLVALNENIVTARTVIRERDAVEDALKNQQPEDIENFADDLKINMKYNRDLERFEIGVFDFVKYASRVTGSQYRLSNQSVIKGIVYCQKDVAIKILRESFVSNMFKVIDSIDQTTASPVLSDQTDSINELREFYKKSVYAKLTIGRGNTKAFPPCMKEIIRNLHEGINVPHMGRLAIASFLHKVGYTEDEIVEYFRNAPDFDESITRYQIKHLSGEISGVEYSPPKCETMRSNHLCFMDDDKLCHQDWMKHPLTYYEVKSRRLGMAGDPNSLEHHHHHH	not soluble
